Assay: yeast display, Sf9 membrane polyspecificity reagent, FACS + sequencing; frameworks hold sequencing errors
Method in brief: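 Using colony PCR, genes from sorted yeast display clones were amplified, then sequenced on MiSeq at 2 × 250 and filtered by CDR length. The clones had been stained with 10% biotinylated, detergent-solubilized Sf9 membrane reagent for 1 hour at 4 °C and sorted by FACS into low and high (top ~1%) gates on anti-HA and streptavidin fluorescence. Polyreactivity labels come from the gate of origin.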

Sequence | polyreactivity (PSR sort gate)
QVQLVESGGGLVQAGGSLRLSCAASGRIFSRYAMGWYRQAPGKERELVAAINWSGGSTYYADSVKGRFTISRDNAKNTVYLQMNSLKPEDTAVYYCAADIYPLAIGAFRDDYWGQGTQVTVSS | low polyreactivity
QVQLVESGGALVQAGGSLRLSCAASGSTFYRNAMGWYRPAPGKERELVATISSSDGSTYYADSVKGRFTISRDNAKNTVYVQMNSLKPEDTAVYYCNADPISSGSVANFQYDYCGQGTQVTVSS | low polyreactivity
QVQLVESGGGLVQAGGSLRLSCAASGITFLGNAMGWYRQAPGKERELVAAISASGGRTYYADSVKGRFTISRDNAKNTVYLQMNSLKPEDTPVYYCAAASKPWYYYWGQGTQVTVSS | high polyreactivity
QVQLVESGGGLVQAGGSLRLSCAASGFIFSWYAMGWYRQAPGKERELVAAITSGGRTNYADSVKGRFTISRDNAKNTVYLQMNSLKPEDTAVYYCAAAFYPFWPRYTSDYWGQGTQVTVSS | high polyreactivity
QVQLVESGGGLVQAGGSLRLSCAASGFTFRYNAMGWYRQAPGKERELVAAISRGTITNYADSVKGRFTISRDNAKNTVYLQMNSLKPEDTAVYYCAARYPGHFRFYYWGQGTQVTVSS | high polyreactivity
QVWLQESGGGRVQACGSLRLSCAASGTIARDIFMGWYRQAPGKEREFVATIAQGGITNYADSVKGRFTISRDNAKNTVYLQMNSVKPGDTAVYYCAARDGNCYWFYYWGQGTQVTVSS | high polyreactivity
QVQLVESGGGLVQAGGSLRLSCAASGRILGAYAMGWYRQAPGKERELVASISSGGRTYYADSVKGRFTISRDNAKNTVYLQINSLKQEDTAVYYCAAEYFIWSYPRYEYWGQGTQVNVSS | high polyreactivity
QVQLVESGGGLVQAGGSLRLSCAACGRTSSIYAMGWYRQAPGKERELVATITGGAVSTSYADSVKGRFTISRDNAKNTVYLQMNSLKPEDSAVYYCADDHWRYRSRPVNYWGLGTQVTVSS | high polyreactivity
QVQLVESGGGLVQAGGSLRLSCAASGRTFYHNAMGWYRQAPGKERELVAAITSSGGRTYYADSVKGRFTISRDNAKNTVYLQMNSLKPEDTAVYYCNARYLGGQVRYWYYNKYDYWGQGTQVTVSS | high polyreactivity
QVQLVESGGGLVQAGGSLRLSCAASGSTFSRYAMGWYRQAPGKERELVAAISSGDRTNYADSVKGRFTISRDNAKNTVYLQMNSLKPEDTAVYYCADDLFPIAGEYDYWGQGTQVTVSS | high polyreactivity
QVQLVESGGGLVQAGGSLRLSCAASGRTLYGYAMGWYRQAPGKERELVASIRSGGSTNYADSVKGSFTISRDNAKNTVYFQMNSLKQEYTAVYYCAAEPYYSYGYYHAHGRDVGYWGQGTQVTVSS | low polyreactivity
QVQLVESGGGLVQAGGSLRLSCAASGRTFGYNAMGWYRQAPGKERELVAAISWRSGGTYYADSVKGRFTISRDNANNSVYLQMISLKPEDTAVYYCARRSPHHGRDYWGQGTQVTVSS | low polyreactivity
QVQLVESGGGLVQAGGSLRLSCAASGRTLTSNAMGWYRQAPGKERELVASITGSSSNTYYADSVKGRFTISRDNAKNTVYLQMNSLKPEDTAVYYCAAEVGFPWWRLDEYWGQGTQVTVSS | low polyreactivity
QVQLVESGGGLVQAGGSLRLSCAASGRIFPWNPMGWYRQAPGKERELVAGINNGDRTYYADSVKGRFTISRDNAKNTVYLQMNSLKPEDTAVYYCAVDTWYFLFQYGYYQEGDYWGQGTQVTVSS | low polyreactivity
QVQLVESGGGLVKAGGSLRLSCAATGFTLSWYDMGWYRPAPGKERELVATISRGGITYYADSVKGRFTISRDNAKNTVYLQMNSLKPEDTAVYYCAADYRYGWYRYDYWGQGTQVTVSS | high polyreactivity
QVQLVESGGGLVQAGGSLRLSCAASGNIFYYYAMGWYRQAPGKERELVATNTSGGSTNYADSVKGRFTISRDNAKNTVYLQMNSLKPEDTAVYYCAADRRRTYYWLSSYFEGYYWGQGTQVTVSS | low polyreactivity

Sequence | polyreactivity (PSR sort gate)
QVQLVESGGGLVQAGGSHRLSCAASGRIFDDNALGWYCQAPGKERELVAAITGGGRTNYADSVKGRFTISRDNAKNTVYLQMNSLKPEDTAVSYCAAATYGWVIYIYDYWGQGTQVNVSS | low polyreactivity
QVQLVESGGGLVQAGGSLRLSCAASGRTFYLYAMGWYRQAPGKERELVAAITWRGGSTYYADSVKGRFTISRDNAKNTVYLQMNSLKPEDTAVYYCAAVTFFYYSAVRYEYYYWGQGTQVTVSS | high polyreactivity
QVQLVESGGGLVQAGGSLRLSCAASGFTFYRNTMGWYRQAPGKERELVAAITQRGGSTYYADSVKGRFTISRDNAKNTVYLQMNSLKPEDTAVYYCNRDVKVLYASSHSPYGYDHWGQGTQVTVSS | low polyreactivity
QVQLVESGGGLVQAGGSLRLSCAASGFIFRYYAMGWYRQAPGKERELVAAISKRGGGTYYADSVKGRFTISRDYAKNTVFLQMNSLKPEDTAVYYCAAGPGRGRSTLGSYYWGQGTQVTVTS | high polyreactivity
QVQLVESGGGLVQAGGSLRLSCAASGRILPRNAMGWYRQAPGKERELVAGISSEGSTNYADSVKGRFTISRDNAKYTVYLQMNSLKPEDSAVYYCAADGVYDPNLYGYWGQGTQVNVSS | low polyreactivity
QVQLVESGGGLVQAGGSLRLSCAPSGSIFYLNAMGWYRQAPGKERELVAAISKRGSRTYYADSVKGRFTISRDNAKNTVYLQMNSLKPEDTAVYYCNALDTPGYNTEPARQYDHWGQGTQVTVSS | high polyreactivity
QVQLVESGGGLVQAGGSLRLSCAASGRTFWVNAMGWYRQAPGKERELVAGITFRGGSTYYADSVKGRFTISRDNAKNTVYLQMYSLKPEDTAVYYCAADVTFVYSGRRVHYFYWGQGTQVTVSS | high polyreactivity
QVQLVESGGGLVQAGGSLRLRCAASGRTLVAYAMGWYRQAPGKERELVAAIDTDTGITYYADSVKGRFTISRDNAKNTVYLQMNSLKPEDTAVYYCAAETYYAVSTGYDFDYWGQGTQVTVSS | high polyreactivity
QVQLVESGGGLVQAGGSLRLLCAASGSTIVTNAMGWYRQAPGKERELVAAITSSDGITYYADSVKGRFTISRDNAKNTVYLQMNSLKPEDTAVYYCAAELVSVRYLYALHDRDYWGQGTQVTVSS | low polyreactivity
QVQLVESGGGLVQAGGSLRLSCAASGRILIPYAMGWYRQAPGKEREFVAGITGSGGRTYYADSVKGRFTISRDNAKNTVYLQMNSLKPEDTAVYYCDAVYYYSPTMYYWGQGTQVTVSS | low polyreactivity
QVQHVESGGGLVQAGGSLRLSCAASGSTLSSYAMGWSRQAPGKERELVAAINSSGGRTYYADSVKGRFTISRDNAKNTVYLKMNSVKPEDTEVYYCAATRGRYREDEDYWGQGTQVTVSS | high polyreactivity
QVQLVESGGGLVQAGGSLRLSCAASGRTFYINAMGWYRQAPRKERELVAAITSVGSTNYADSVKGRFTISRDNAKNNVYIQMNSLKPEDTAVYYCAAESTEGTSGDYDYWGQGTQVTVSS | low polyreactivity
QVQLVESGGGLVQAGGSLRLSCAASGYTFLRNAMGWYRQAPGKERELVAAISYSGGGTYYPDSVMGRFTISRDHAKNTVYLKMNSLKPEDTAVYYCNVAQRYYGNFFSSRYESWGQGTQVTVSS | low polyreactivity
QVQLVESGGGLVQAGGSLRLSCAASGSTFTNYAMGWYRQAPGKERELVAAITSVGSTYYADSVKGRFTISRDNAKNTVYLQMNSLKPEDTAVYYCNVVYRDQYNYWGQGTQVTVSS | low polyreactivity
QVQLVESGGGLVQAGGSLRLSCAAYSYVMGWNRQAPGKERELVAAISQSGGSTYYADSVKGRFTISRDNPKNTVYLQMNSLKPEDTAVYYCAARREPYQYNQYYSWGQGTKVTVSS | high polyreactivity

Reference: the nanobody polyreactivity screen of Harvey et al. (2022)
